According to patent US20250297004A1, “NECTIN-4 BINDING AGENTS” (INNATE PHARMA, priority 2022, published 2025):

T1: human Nectin-4 expressed on cells (human, UniProt Q96NY8 32-510)
T1 construct: On SUM190, SUM185, MDA-MB-468 cells (endogenous) or transfected cells; 31-residue signal peptide left out; also called huN4; wild-type human Nectin-4
T1 sequence: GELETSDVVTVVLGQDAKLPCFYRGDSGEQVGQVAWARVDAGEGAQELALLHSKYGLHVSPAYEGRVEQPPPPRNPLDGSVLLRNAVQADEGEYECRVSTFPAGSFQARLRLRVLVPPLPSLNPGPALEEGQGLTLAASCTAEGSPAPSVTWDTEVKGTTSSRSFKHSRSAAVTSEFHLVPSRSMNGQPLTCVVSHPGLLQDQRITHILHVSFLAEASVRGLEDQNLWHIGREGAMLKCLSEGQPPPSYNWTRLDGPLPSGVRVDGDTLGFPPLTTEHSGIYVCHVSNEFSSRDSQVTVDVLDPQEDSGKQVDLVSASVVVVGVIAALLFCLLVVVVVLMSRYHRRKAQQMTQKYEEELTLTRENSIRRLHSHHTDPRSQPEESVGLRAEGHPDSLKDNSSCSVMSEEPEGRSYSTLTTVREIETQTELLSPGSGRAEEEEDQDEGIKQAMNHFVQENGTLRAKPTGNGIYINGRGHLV

T2: human Nectin-4 (Homo sapiens, UniProt Q96NY8)
T2 sequence (Q96NY8 32-510): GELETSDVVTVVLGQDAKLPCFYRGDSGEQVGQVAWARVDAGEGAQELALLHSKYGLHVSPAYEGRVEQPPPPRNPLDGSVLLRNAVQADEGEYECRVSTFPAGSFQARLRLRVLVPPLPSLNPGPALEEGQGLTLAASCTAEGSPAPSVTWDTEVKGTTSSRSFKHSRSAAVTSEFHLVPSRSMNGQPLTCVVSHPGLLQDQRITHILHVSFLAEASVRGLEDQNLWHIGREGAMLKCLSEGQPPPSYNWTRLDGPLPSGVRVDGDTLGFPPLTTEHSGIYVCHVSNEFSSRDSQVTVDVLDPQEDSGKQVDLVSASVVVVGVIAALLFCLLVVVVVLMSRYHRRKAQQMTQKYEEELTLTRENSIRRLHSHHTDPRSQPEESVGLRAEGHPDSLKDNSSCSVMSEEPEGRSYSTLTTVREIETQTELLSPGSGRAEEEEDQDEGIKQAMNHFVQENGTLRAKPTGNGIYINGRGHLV


Assays:
[1] = system: SUM190 cells subcutaneously engrafted in CB17-SCID mice; assay: In vivo efficacy of ggfg-Dxd ADCs, Nectin-4 low/SUM190 mouse model of human breast cancer; conditions: single i.v. injection 3 mg/kg; each antibody conjugated to ggfg-Dxd, DAR=8; FIG. 4
Method: SUM190 cells were subcutaneously engrafted in CB17-SCID immunodeficient mice at a dose of 0.5 million cells in 100 μl of Matrigel with growth factor diluted at ½ in PBS. When tumors reached a volume between 195 and 250 mm3, mice were randomized into groups of 9 mice for intravenous treatment with a single injection of 3 mg/kg of camptothecin ADCs. Tumor growths were followed twice a week. Kaplan Meier survival curves were established by using GraphPad Prism V7 software according to the following criteria: When the tumor volume reached 1500 mm3, mice were euthanized and considered dead on the day of sacrifice (D).

[2] = molecular target: T1, human Nectin-4 expressed on cells; assay: flow cytometry on SUM190 cells, MedFI at saturation
Method: The humanized antibodies in Table 3 of Example 3 and in Table 6 of Example 5 were cloned, produced and purified, then tested for binding to Nectin-4 expressing cells by flow cytometry. Binding of humanized variants in human IgG1 format was determined on the SUM190 cell line expressing high levels of Nectin-4.

[3] = molecular target: human Nectin-4 (protein used in the SPR affinity measurements) (human) (UniProt Q96NY8); assay: SPR, human IgG1
[4] = molecular target: T1, human Nectin-4 expressed on cells; assay: cell-based or functional assay
[5] = molecular target: T1, human Nectin-4 expressed on cells; assay: cell-based or functional assay; remark: listed apart in the source
human Nectin-4 = molecular target: T2, human Nectin-4; assay: Binding to human Nectin-4 by SPR; conditions: second set (Table 7); for ka: SPR association constant; for kd: SPR dissociation constant; for Kd: SPR, human IgG1 isotype antibodies
Method: (§1) The antibodies in Table 3 of Example 3 were cloned as human IgG1 isotype antibodies, produced and purified, then tested for binding to human Nectin-4. Affinity of the 16 humanized variants, as well as their association and dissociation constants were assessed by SPR analysis. Table 4 summarizes all the calculated constants (Affinity constant KD (nM), association constant ka (1/Ms) and dissociation constant kd (1/s)).
as §1, with “Table 6” for “Table 3”, “Example 5” for “Example 3”, “Table 7” for “Table 4”

Molecule | control of tumor growth [1] | Max MedFi [2] [MedFI] | Kd [3] [nM] | koff [3] [s⁻¹] | kon [3] [M⁻¹ s⁻¹] | internalization efficiency on MDA-MB-468, normalized to chimeric parental antibody (Fab-ZAP, CTG), first column [4] | internalization efficiency on MDA-MB-468, normalized to chimeric parental antibody (Fab-ZAP, CTG), second column [4] | internalization efficiency on SUM190, normalized to chimeric parental antibody (Fab-ZAP, CTG), experiment 1 [5] | internalization efficiency on SUM190, normalized to chimeric parental antibody (Fab-ZAP, CTG), experiment 2 [5] | ka (human Nectin-4) [M⁻¹ s⁻¹] | kd (human Nectin-4) [s⁻¹] | Kd (human Nectin-4) [nM]
enfortumab [reference compound] | no longer showed the ability to control tumor growth |  |  |  |  |  |  |  |  |  |  | 
H5L2 (antibody, human IgG1, V domains shown, human IgG1 isotype) VH: QVQLVQSGAEVKKPGASVKVSCKASGYIFTSYWMHWVKQRPGQGLEWMGEIDPSDSYTNYNQKFKGRVTMTLDKSTSTTYMELSSLRSEDTAVYYCARGYGNYGDYWGQGTLVTVSS VL: DVVMTQSPLSNPVTPGEPASISCRSSKSLLHSNGITYLYWYLQKPGQSPQLLIYQMSNLASGVPDRFSSSGSGTDFTLKISRVEAEDVGVYYCAQNLELPWTFGGGTKVEIK |  | 25300 | 23.8 | 0.0053 | 220000 | 39.4 % of chimeric parental | 39.4 % of chimeric parental | 81.3 % of chimeric parental | 86 % of chimeric parental | 220000 | 0.0053 | 23.8
H7L2 (antibody, human IgG1, V domains shown, human IgG1 isotype) VH: QVQLVQSGAEVKKPGASVKVSCKASGYIFTSYWMHWVKQRPGQGLEWIGEIDPSDSYTNYNQKFKGRVTLTLDKSTSTTYMELSSLRSEDTAVYYCARGYGNYGDYWGQGTLVTVSS VL: DVVMTQSPLSNPVTPGEPASISCRSSKSLLHSNGITYLYWYLQKPGQSPQLLIYQMSNLASGVPDRFSSSGSGTDFTLKISRVEAEDVGVYYCAQNLELPWTFGGGTKVEIK |  | 23400 | 39.5 | 0.0063 | 160000 | 58.7 % of chimeric parental | 58.7 % of chimeric parental | 89.6 % of chimeric parental | 74.8 % of chimeric parental | 160000 | 0.0063 | 39.5
H7L3 (antibody, human IgG1, V domains shown, human IgG1 isotype) VH: QVQLVQSGAEVKKPGASVKVSCKASGYIFTSYWMHWVKQRPGQGLEWIGEIDPSDSYTNYNQKFKGRVTLTLDKSTSTTYMELSSLRSEDTAVYYCARGYGNYGDYWGQGTLVTVSS VL: DVVMTQSALSNPVTPGEPASISCRSSKSLLHSNGITYLYWYLQKPGQSPQLLIYQMSNLASGVPDRFSSSGSGTDFTLKISRVEAEDVGVYYCAQNLELPWTFGGGTKVEIK |  | 25000 | 49 | 0.0055 | 110000 | 51.8 % of chimeric parental | 51.8 % of chimeric parental | 88.5 % of chimeric parental | 61.3 % of chimeric parental | 110000 | 0.0055 | 49
H6L3 (antibody, human IgG1, V domains shown, human IgG1 isotype) VH: QVQLVQSGAEVKKPGASVKVSCKASGYIFTSYWMHWVKQRPGQGLEWIGEIDPSDSYTNYNQKFKGRVTMTLDKSTSTTYMELSSLRSEDTAVYYCARGYGNYGDYWGQGTLVTVSS VL: DVVMTQSALSNPVTPGEPASISCRSSKSLLHSNGITYLYWYLQKPGQSPQLLIYQMSNLASGVPDRFSSSGSGTDFTLKISRVEAEDVGVYYCAQNLELPWTFGGGTKVEIK |  | 24800 | 38.6 | 0.0051 | 130000 | 66.3 % of chimeric parental | 66.3 % of chimeric parental | 78.7 % of chimeric parental | 92.8 % of chimeric parental | 130000 | 0.0051 | 38.6
H7L1 (antibody, human IgG1, V domains shown, human IgG1 isotype) VH: QVQLVQSGAEVKKPGASVKVSCKASGYIFTSYWMHWVKQRPGQGLEWIGEIDPSDSYTNYNQKFKGRVTLTLDKSTSTTYMELSSLRSEDTAVYYCARGYGNYGDYWGQGTLVTVSS VL: DVVMTQSPLSLPVTPGEPASISCRSSKSLLHSNGITYLYWYLQKPGQSPQLLIYQMSNLASGVPDRFSSSGSGTDFTLKISRVEAEDVGVYYCAQNLELPWTFGGGTKVEIK |  | 17800 | 29.7 | 0.006 | 200000 | 79 % of chimeric parental | 79 % of chimeric parental | 129 % of chimeric parental | 73.1 % of chimeric parental | 200000 | 0.006 | 29.7
H8L1 (antibody, human IgG1, V domains shown, human IgG1 isotype) VH: QVQLVQSGAEVKKPGASVKVSCKASGYIFTSYWMHWVKQAPGQGLEWIGEIDPSDSYTNYNQKFKGRVTMTLDKSTSTTYMELSSLRSEDTAVYYCARGYGNYGDYWGQGTLVTVSS VL: DVVMTQSPLSLPVTPGEPASISCRSSKSLLHSNGITYLYWYLQKPGQSPQLLIYQMSNLASGVPDRFSSSGSGTDFTLKISRVEAEDVGVYYCAQNLELPWTFGGGTKVEIK |  | 17300 | 19.2 | 0.0048 | 250000 | 71.2 % of chimeric parental | 71.2 % of chimeric parental | 132 % of chimeric parental | 65.2 % of chimeric parental | 250000 | 0.0048 | 19.2
H6L1 (antibody, human IgG1, V domains shown, human IgG1 isotype) VH: QVQLVQSGAEVKKPGASVKVSCKASGYIFTSYWMHWVKQRPGQGLEWIGEIDPSDSYTNYNQKFKGRVTMTLDKSTSTTYMELSSLRSEDTAVYYCARGYGNYGDYWGQGTLVTVSS VL: DVVMTQSPLSLPVTPGEPASISCRSSKSLLHSNGITYLYWYLQKPGQSPQLLIYQMSNLASGVPDRFSSSGSGTDFTLKISRVEAEDVGVYYCAQNLELPWTFGGGTKVEIK |  | 18300 | 32.1 | 0.0062 | 190000 | 61.6 % of chimeric parental | 61.6 % of chimeric parental | 71.3 % of chimeric parental | 54.5 % of chimeric parental | 190000 | 0.0062 | 32.1
H6L2 (antibody, human IgG1, V domains shown, human IgG1 isotype) VH: QVQLVQSGAEVKKPGASVKVSCKASGYIFTSYWMHWVKQRPGQGLEWIGEIDPSDSYTNYNQKFKGRVTMTLDKSTSTTYMELSSLRSEDTAVYYCARGYGNYGDYWGQGTLVTVSS VL: DVVMTQSPLSNPVTPGEPASISCRSSKSLLHSNGITYLYWYLQKPGQSPQLLIYQMSNLASGVPDRFSSSGSGTDFTLKISRVEAEDVGVYYCAQNLELPWTFGGGTKVEIK |  | 24800 | 41.3 | 0.0058 | 140000 | 58.5 % of chimeric parental | 58.5 % of chimeric parental | 69.7 % of chimeric parental | 63.5 % of chimeric parental | 140000 | 0.0058 | 41.3
